Measured values as given in US20150284465A1 (Chugai, published 2015).
Where a chain is given by its changes, count along the chain named.

B1: RDC-5 (antibody, V domains shown)
VH: QVQLQESGPGLVRPSQTLSLTCTVSGYSITSDHAWSWVRQPPGRGLEWIGYISYSGITTYNPSLKSRVTMLRDTSKNQFSLRLSSVTAADTAVYYCARVLARITAMDYWGQGSLVTVSS
VL: DIQMTQSPSSLSASVGDRVTITCRASQDISSYLNWYQQKPGKAPKLLIYYTSRLHSGVPSRFSGSGSGTDFTFTISSLQPEDIATYYCQQGNTLPYTFGQGTKVEIK
notes: also called RDC-5H/L(WT)
B2: RDC-2 (antibody, V domains shown)
VH: B1 VH with I103A
VL: B1 VL
notes: also called RDC-2H/L(WT)
B3: RDC-7 (antibody, V domains shown)
VH: B1 VH with V99T
VL: B1 VL
notes: also called RDC-7H/L(WT)
B4: RDC-6 (antibody, V domains shown)
VH: B1 VH with V99I
VL: B1 VL
notes: also called RDC-6H/L(WT)
B5: RD-28 (antibody, V domains shown)
VH: B1 VH with V99S, I103T
VL: B1 VL with Q89G
B6: RDC-8 (antibody, V domains shown)
VH: B1 VH with V99L
VL: B1 VL
notes: also called RDC-8H/L(WT)
B7: RDC-11 (antibody, V domains shown)
VH: B1 VH with V99S, I103T
VL: B1 VL with Q89G, T93R
notes: also called H(WT)/RDC-11L
B8: RDC-4 (antibody, V domains shown)
VH: B1 VH with V99T, I103A
VL: B1 VL
notes: also called RDC-4H/L(WT)
B9: RDC-3 (antibody, V domains shown)
VH: B1 VH with V99I, I103A
VL: B1 VL
notes: also called RDC-3H/L(WT)
B10: 31R_H2L2 (antibody, V domains shown)
VH: QVQLVQSGAEVKKPGASVKVSCKASGYTFTGYIMNWVRQAPGQGLEWMGLINPYNGGTSYNQQFQDRVTITADESTSTAYMELSSLRSEDTAVYYCARDGYDDGPYTMDYWGQGTLVTVSS
VL: DIQMTQSPSSLSASVGDRVTITCQTSEDIYSFLAWYQQKPGKAPKLLIYNAQTEAQGVPSRFSGSGSGTDFTLTISSLQPEDFATYYCQHHYESPLTFGGGTKVEIKR
B11: 31R_H3L2 (antibody, V domains shown)
VH: B10 VH with Q62D
VL: B10 VL
B12: 31R_H1L1 (antibody)
heavy: QVQLVQSGAEVKKPGASVKVSCKASGYTFTGYIMNWVRQAPGQGLEWMGLINPYNGGTSYNQKFKGRVTITADESTSTAYMELSSLRSEDTAVYYCARDGYDDGPYTMDYWGQGTLVTVSSASTKGPSVFPLAPSSKSTSESTAALGCLVKDYFPEPVTVSWNSGALTSGVHTFPAVLQSSGLYSLSSVVTVPSSNFGTQTYTCNVDHKPSNTKVDKTVERKSCVECPPCPAPPVAGPSVFLFPPKPKDTLMISRTPEVTCVVVDVSHEDPEVQFNWYVDGVEVHNAKTKPREEQFNSTFRVVSVLTVVHQDWLNGKEYKCKVSNKGLPAPIEKTISKTKGQPREPQVYTLPPSREEMTKNQVSLTCLVKGFYPSDIAVEWESNGQPENNYKTTPPMLDSDGSFFLYSKLTVDKSRWQQGNVFSCSVMHEALHNHYTQKSLSLSPGK
light: DIQMTQSPSSLSASVGDRVTITCRTSENIYSFLAWYQQKPGKAPKLLIYNAKTLAKGVPSRFSGSGSGTDFTLTISSLQPEDFATYYCQHHYESPLTFGGGTKVEIKRTVAAPSVFIFPPSDEQLKSGTASVVCLLNNFYPREAKVQWKVDNALQSGNSQESVTEQDSKDSTYSLSSTLTLSKADYEKHKVYACEVTHQGLSSPVTKSFNRGEC
notes: Anti-human IL-31 receptor antibody
B13: H96/PF1L-IgG1 (antibody, V domains shown)
VH: QVQLQESGPGLVKPSETLSLTCAVSGYSISDDHAWSWVRQPPGEGLEWIGYISYSGITNYNPSLKGRVTISRDNSKNTLYLQMNSLRAEDTAVYYCARVLARITAMDYWGEGTLVTVSS
VL: DIQMTQSPSSLSASVGDSVTITCQASQDISSYLNWYQQKPGKAPELLIYYGSELHSGVPSRFSGSGSGTDFTFTISSLEAEDAATYYCGQGNRLPYTFGQGTKVEIE

How the values were obtained:
[1] = target: T1, recombinant human IL-6R sR (R&D systems) (human, UniProt P08887 20-358); test: SPR (Biacore T100), antibody captured on Protein A, rhIL-6sR as analyte, 25 C
T1 construct: Bought soluble receptor; also called rhIL-6sR; rhIL-s6R
T1 sequence (looked up): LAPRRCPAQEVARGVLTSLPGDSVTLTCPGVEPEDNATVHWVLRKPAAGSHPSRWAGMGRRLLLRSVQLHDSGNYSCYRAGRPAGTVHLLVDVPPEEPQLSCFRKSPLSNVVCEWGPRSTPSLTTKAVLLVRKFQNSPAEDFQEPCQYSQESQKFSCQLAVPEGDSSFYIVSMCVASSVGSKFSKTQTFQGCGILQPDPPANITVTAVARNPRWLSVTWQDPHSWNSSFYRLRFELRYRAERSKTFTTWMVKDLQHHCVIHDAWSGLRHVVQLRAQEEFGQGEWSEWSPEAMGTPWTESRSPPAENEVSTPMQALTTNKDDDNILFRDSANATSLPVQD
Method: The antigen-antibody interaction was measured by immobilizing 4,400 to 5,000 RU of rec-Protein A (Zymed) immobilized onto a sensor chip by the amine coupling method, binding various antibodies onto the chip, and then flowing the antigen over the chip as an analyte. For the antigen, various concentrations of rhIL-6sR were used. All measurements were carried out at 25° C. The kinetic parameters, association rate constant kₐ (1/Ms) and dissociation rate constant kd (1/s) were calculated from the sensorgrams obtained by measurement. Then, KD (M) was determined based on the rate constants. The respective parameters were determined using Biacore T100 Evaluation Software (Biacore).

[2] = target: T2, soluble human IL-31 receptor (human, UniProt Q8NI17 20-514); test: SPR (Biacore T100), antibody captured on Protein A, soluble human IL-31 receptor as analyte
T2 construct: also called soluble NR10; NR10
T2 sequence: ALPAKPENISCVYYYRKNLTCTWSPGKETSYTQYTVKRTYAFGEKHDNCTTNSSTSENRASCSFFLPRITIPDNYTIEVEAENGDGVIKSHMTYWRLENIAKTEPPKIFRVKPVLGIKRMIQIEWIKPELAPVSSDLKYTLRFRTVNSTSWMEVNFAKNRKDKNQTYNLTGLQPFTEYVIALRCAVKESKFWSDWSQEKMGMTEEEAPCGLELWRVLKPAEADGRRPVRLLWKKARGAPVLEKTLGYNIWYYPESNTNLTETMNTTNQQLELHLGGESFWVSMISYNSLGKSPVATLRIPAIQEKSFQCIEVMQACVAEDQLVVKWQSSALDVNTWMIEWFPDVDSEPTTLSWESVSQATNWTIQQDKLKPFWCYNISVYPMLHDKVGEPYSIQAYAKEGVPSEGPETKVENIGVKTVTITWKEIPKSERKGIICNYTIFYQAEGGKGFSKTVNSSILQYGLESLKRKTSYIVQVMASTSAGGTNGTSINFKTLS
Method: The antigen-antibody reaction kinetics between anti-human IL-31 receptor antibody and soluble human IL-31 receptor was analyzed using Biacore T100 (GE Healthcare Biosciences). The antigen-antibody interaction was measured by immobilizing rec-Protein A (Zymed) (hereinafter “Protein A”) onto a sensor chip, capturing an antibody with the immobilized Protein A, and then reacting the antibody with the antigen as an analyte using a method known to those skilled in the art. […] In the first step of the measurement, the antibody in solution was bound to Protein A/G, and the analyte solution was allowed to interact with the antibody. After three minutes of interaction, the solution was switched to HBS-EP+, and the dissociation phase was monitored for five minutes. After measurement of the dissociation phase, the sensor chip was regenerated by washing with 10 μl of 10 mM glycine-HCl (pH 1.5). The association, dissociation, and regeneration constitute one analysis cycle. Each antibody was measured according to this cycle. The obtained sensorgrams were kinetically analyzed using the Biacore-specific data analysis software, Biacore T100 Evaluation Software (GE Healthcare Biosciences).

[3] = target: T3, SR344 (N-terminal 1st to 344th amino acids of soluble human IL-6R) (human, UniProt P08887 20-344, limits assumed); test: SPR (Biacore T100), Protein A/G capture, SR344 at 0, 0.36 and 1.4 µg/ml, 15 min dissociation, 37 C
T3 construct: also called recombinant soluble IL-6 receptor; soluble human IL-6 receptor
T3 sequence (looked up): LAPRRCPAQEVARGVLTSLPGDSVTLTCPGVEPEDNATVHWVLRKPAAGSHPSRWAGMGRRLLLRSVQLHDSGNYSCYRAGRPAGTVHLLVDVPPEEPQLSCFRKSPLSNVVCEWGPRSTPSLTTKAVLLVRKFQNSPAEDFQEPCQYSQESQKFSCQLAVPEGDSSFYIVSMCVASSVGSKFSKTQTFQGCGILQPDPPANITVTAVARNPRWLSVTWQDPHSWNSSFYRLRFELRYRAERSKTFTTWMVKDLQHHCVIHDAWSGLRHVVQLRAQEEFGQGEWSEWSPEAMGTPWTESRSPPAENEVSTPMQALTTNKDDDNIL
Method: This measurement was carried out under the same conditions described in Example 2. The running buffer used was HBS-EP+, and the flow rate was 20 μl/min. Each antibody was prepared so that about 100 RU of the antibody was bound to Protein A/G. SR344 was prepared at 0, 0.065, 0.131, and 0.261 μg/ml using HBS-EP+ and used as an analyte. In the first step of the measurement, the antibody in solution was bound to Protein A/G, and the analyte solution was allowed to interact therewith. After three minutes of interaction, the solution was switched to HBS-EP+, and the dissociation phase was monitored for 10 or 15 minutes. After measurement of the dissociation phase, the sensor chip was regenerated by washing with 10 μl of 10 mM glycine-HCl (pH 1.5). The association, dissociation, and regeneration constitute one analysis cycle. Each antibody was measured according to this cycle.
The Tm of purified H96/PF1L-IgG1 was determined by the method described in Example 5. The affinity measurement was carried out under essentially the same conditions used in Example 5. Note that the concentration of SR344 was adjusted to 0, 0.36, and 1.4 μg/ml, and the dissociation phase was monitored for 15 minutes.

| Binder | Kd [1] | koff [1] | kon [1] | also measured |
| --- | --- | --- | --- | --- |
| B1 | 0.022 nM | 2.8e-05 s⁻¹ | 1.2e+06 M⁻¹ s⁻¹ | – |
| B2 | 0.022 nM | 2.5e-05 s⁻¹ | 1.1e+06 M⁻¹ s⁻¹ | – |
| B3 | 0.038 nM | 4.2e-05 s⁻¹ | 1.1e+06 M⁻¹ s⁻¹ | – |
| B4 | 0.029 nM | 3.5e-05 s⁻¹ | 1.2e+06 M⁻¹ s⁻¹ | – |
| B5 | 0.12 nM | 0.00011 s⁻¹ | 940000 M⁻¹ s⁻¹ | – |
| B6 | 0.025 nM | 3.6e-05 s⁻¹ | 1.4e+06 M⁻¹ s⁻¹ | – |
| B7 | 0.065 nM | 7e-05 s⁻¹ | 1.1e+06 M⁻¹ s⁻¹ | – |
| B8 | 0.027 nM | 2.9e-05 s⁻¹ | 1.1e+06 M⁻¹ s⁻¹ | – |
| B9 | 0.037 nM | 3.7e-05 s⁻¹ | 1e+06 M⁻¹ s⁻¹ | – |
| B10 | – | – | – | Kd [2]: 3.9 nM; koff [2]: 0.0016 s⁻¹; kon [2]: 420000 M⁻¹ s⁻¹ |
| B11 | – | – | – | Kd [2]: 3.6 nM; koff [2]: 0.0016 s⁻¹; kon [2]: 440000 M⁻¹ s⁻¹ |
| B12 | – | – | – | Kd [2]: 3.3 nM; koff [2]: 0.0012 s⁻¹; kon [2]: 370000 M⁻¹ s⁻¹ |
| B13 | – | – | – | Kd [3]: 0.039 nM; koff [3]: 4.8e-05 s⁻¹; kon [3]: 1.2e+06 M⁻¹ s⁻¹ |
